Experimental data published in the supplement of paper PMC10057847, “Precision engineering of biological function with large-scale measurements and machine learning” (PLOS ONE, 2023).
Where “and” joins values, the source holds several entries; their conditions need not be identical. Identical values can stand only once. ± gives the uncertainty stated by the source.

B1: library; the commonest letter at each place (parent)
chain: MKPVTLYDVAEYAGVSYQTVSRVVNQASHVSAKTREKVEAAMAELNYIPNRVAQQLAGKQSLLIGVATSSLALHAPSQIVAAIKSRADQLGASVVVSMVERSGVEACKAAVHNLLAQRVSGLIINYPLDDQDAIAVEAACTNVPALFLDVSDQTPINSIIFSHEDGTRLGVEHLVALGHQQIALLAGPLSSVSARLRLAGWHKYLTRNQIQPIAEREGDWSAMSGFQQTMQMLNEGIVPTAMLVANDQMALGAMRAITESGLRVGADISVVGYDDTEDSSCYIPPLTTIKQDFRLLGQTSVDRLLQLSQGQAVKGNQLLPVSLVKRKTTLAPNTQTASPRALADSLMQLARQVSRLESGQ

Experiments:
Details in all cases: with IPTG
[1] = variants of: B1
Experimental: (§1)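 LacI variants on the pVER plasmid regulate eYFP behind lacO in E. coli MG1655Δlac, grown in rich M9 at 37 °C with a 2-fold IPTG dilution series. After two 160-min growth steps, YFP is read by flow cytometry and calibrated to MEF. Bayesian MCMC fits of the Hill equation give G0, G∞, EC50 and n (posterior mean ± SD).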

[2] = variants of: B1; assay: Hill coefficient n (dimensionless); higher = steeper dose response
Experimental: as §1

[3] = variants of: B1; assay: basal output G0 (YFP, no IPTG) (log10 MEF); higher = higher reporter expression without inducer
Experimental: as §1

[4] = variants of: B1; assay: saturating output G-infinity (YFP) (log10 MEF); higher = higher reporter expression at saturating IPTG
Experimental: as §1

Row | Variant | EC50 for IPTG (log10 µmol/L) [1] | Hill coefficient n [2] | basal output G0 (log10) [3] | saturating output G-infinity (log10) [4]
1 | V95M Q335R Q360R | 2.01 ± 0.05 | 1.49 ± 0.13 | 2.02 ± 0.65 | 4.169 ± 0.022
2 | A72V A110V N142D S322L | 0.557 ± 0.022 | 1.42 ± 0.1 | 3.778 ± 0.015 | 4.443 ± 0.0049
3 | D88Y A241V N246S L305M L319F P339T A341T L346S | 2.73 ± 0.1 | 0.483 ± 0.058 | 4.455 ± 0.018 | 2.91 ± 1.1
4 | L56M D130E | 0.886 ± 0.058 | 1.42 ± 0.21 | 4.026 ± 0.027 | 4.51 ± 0.011
5 | L90Q R101G C140G L169Q K290I T329S | 1.57 ± 0.01 | 1.54 ± 0.041 | 3.06 ± 0.033 | 4.4822 ± 0.004
6 | E11K A27G K37N H112L A139V S191P | 2.26 ± 0.028 | 1.4 ± 0.06 | 3.373 ± 0.0099 | 4.426 ± 0.012
7 | V271M | 2.089 ± 0.0097 | 1.64 ± 0.034 | 2.19 ± 0.19 | 4.413 ± 0.0046
8 | V136E F161V | 3.713 ± 0.031 | 1.84 ± 0.2 | 4.516 ± 0.0031 | 4.229 ± 0.011
9 | R51H | 1.19 ± 0.02 | 1.46 ± 0.061 | 3.701 ± 0.013 | 4.63 ± 0.0066
10 | R51C | 0.988 ± 0.036 | 1.44 ± 0.14 | 3.91 ± 0.021 | 4.49 ± 0.0086
11 | V80L | 2.098 ± 0.0098 | 1.52 ± 0.036 | 1.75 ± 0.28 | 3.914 ± 0.0043
12 | Q55K G121V N333I | 1.78 ± 0.031 | 1.58 ± 0.092 | 2.37 ± 0.36 | 4.393 ± 0.012
13 | K84E D88Y L90P Q153L A199V L342M R351P S358R | 1.47 ± 0.046 | 0.795 ± 0.045 | 4.34 ± 0.01 | 3.722 ± 0.01
14 | D130E | 1.902 ± 0.012 | 1.76 ± 0.057 | 2.29 ± 0.45 | 4.467 ± 0.0052
15 | V96M | 2.315 ± 0.015 | 1.46 ± 0.048 | 1.73 ± 0.53 | 4.175 ± 0.006
16 | Q60R N113S R207G R216G V271M L307I A350T | 2.236 ± 0.011 | 1.62 ± 0.029 | 2.28 ± 0.058 | 4.401 ± 0.0051

Row | Variant | EC50 for IPTG (log10 µmol/L) [1] | Hill coefficient n [2] | basal output G0 (log10) [3] | saturating output G-infinity (log10) [4]
17 | V136E S279T | 0.991 ± 0.11 | 2.42 ± 0.69 | 3.916 ± 0.02 | 4.035 ± 0.0064
18 | S69T I83M | 2.293 ± 0.009 | 1.48 ± 0.033 | 1.02 ± 0.61 | 4.2699 ± 0.0031
19 | S28G T34M Q60R A81S E100K L148V S221N V271L | 0.477 and 0.475 | 1.41 and 2.02 | 3.92 | 4.46 and 4.41
20 | S77P E105V | 2.049 ± 0.0095 | 1.59 ± 0.043 | 2.53 ± 0.067 | 4.1995 ± 0.004
21 | S69F V95A A110E I159S | 1.109 ± 0.01 | 1.64 ± 0.055 | 2.8 ± 0.081 | 4.2252 ± 0.003
22 | E44D R101G R303S R355L | 1.62 ± 0.023 | 1.53 ± 0.093 | 2.44 ± 0.76 | 4.461 ± 0.0089
23 | S70R | 1.42 ± 0.021 | 1.44 ± 0.064 | 2.58 ± 0.09 | 4.22 ± 0.0077
24 | P285S V301M S308P M347V | 0.927 ± 0.019 | 1.33 ± 0.057 | 3.595 ± 0.017 | 4.489 ± 0.0054
25 | M42I R51C | 1.496 ± 0.014 | 1.6 ± 0.058 | 3.21 ± 0.035 | 4.511 ± 0.0051
26 | D88N | 2.843 ± 0.028 | 1.33 ± 0.086 | 0.96 ± 0.58 | 3.479 ± 0.0093
27 | D88G | 2.671 ± 0.015 | 1.41 ± 0.046 | 0.914 ± 0.56 | 3.854 ± 0.0057
28 | S97T F161V | 2.22 ± 0.032 | 1.59 ± 0.087 | 2.49 ± 0.21 | 4.47 ± 0.016
29 | L62M A109V D149E M242V P285S Q317R | 2.91 ± 0.051 | 1.37 ± 0.066 | 2.56 ± 0.042 | 4.412 ± 0.028
30 | S69T L169P | 2.348 ± 0.019 | 1.43 ± 0.062 | 2.68 ± 0.082 | 4.362 ± 0.0071
31 | E100V T299I | 0.9867 ± 0.0075 | 1.54 ± 0.032 | 3.09 ± 0.037 | 4.4562 ± 0.0024
32 | A87P V301M E357G | 2.37 ± 0.024 | 1.18 ± 0.053 | 4.51 ± 0.0073 | 3.619 ± 0.014
